Test results as given in PMC3901395, “Multivalent interactions of the SUMO-interaction motifs in RING finger protein 4 determine the specificity for chains of the SUMO” (Biochemical Journal, 2013).

Assays:
Assay in all cases: ITC; VP-ITC or ITC200; 25°C; ITC buffer (50 mM Tris/HCl, pH 7.5, 150 mM NaCl, 2 mM DTT, 5% glycerol); SUMOs titrated into a solution of the RNF4 construct or peptide (legends of Figures 1B, 2B); 20–30 injections up to 2–3-fold molar excess; values averaged from two to six titrations
[1] = target: RNF4 1–125 (RNF4-SIM domain, wt) (human) (UniProt P78317)
[2] = target: RNF4-SIM2/3 peptide (human)
[3] = target: synthetic tandem PIAS1 SIM peptide

Sequence of RNF4 1–125 (RNF4-SIM domain, wt) (human) (P78317 1-125): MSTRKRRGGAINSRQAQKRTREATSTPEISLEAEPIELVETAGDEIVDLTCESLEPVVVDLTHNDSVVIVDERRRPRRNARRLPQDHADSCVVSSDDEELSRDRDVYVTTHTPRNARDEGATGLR
Sequence of RNF4-SIM2/3 peptide (human) (P78317 43-65): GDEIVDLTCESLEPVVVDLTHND

A Kd [1] of 1.6 µM was found for “linear tetra-SUMO2 (4×SUMO2-ΔN11) (from UniProt P61956 12-95; P61956 12-95; P61956 12-95; P61956 12-95)” in this work.
A Kd [1] of 4.3 µM was found for “linear tetra-SUMO1 (4×SUMO1-ΔN15) (from UniProt P63165 16-101; P63165 16-101; P63165 16-101; P63165 16-101)” in this work.
A Kd [1] of 14 µM, a Kd [2] of 8.5 µM and a Kd [3] of 3.8 µM were found for “linear di-SUMO2 (2×SUMO2-ΔN11) (from UniProt P61956 12-95; P61956 12-95)” in this work.
A Kd [1] of 17 µM was found for “linear di-SUMO1 (2×SUMO1-ΔN15) (from UniProt P63165 16-101; P63165 16-101)” in this work.
